Results taken from the supplement of paper PMC10567573.

B1: MFF (parent)
chain: YTEGISQRMRVPEKLKVAPPNADL

Variants of: B1
Assay: protein stability index of a GFP-peptide fusion (GPS, HEK-293T) (PSI 1-6); higher = more stable
Settings: c terminus: a fixed tail appended
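Further: lentivirally expressed fusions sorted by FACS into six bins by GFP to DsRed ratio, PSI derived from sequencing read proportions per bin multiplied by bin number.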

Row | Variant | protein stability index
1 | YTEGISQRMRVPEKLDVAPPNADL [K16D] | 3.87
2 | YTEGISQRMRVPEKLWVAPPNADL [K16W] | 2.49
3 | YTEGISQRMRVPEKLQVAPPNADL [K16Q] | 2.67
4 | YTEGISQRMRVPEKLMVAPPNADL [K16M] | 2.77
5 | YTEGISQRMRVPEKLTVAPPNADL [K16T] | 3.16
6 | YTEGISQRMRVPEKLIVAPPNADL [K16I] | 3.23
7 | YTEGISQRMRVPEKLGVAPPNADL [K16G] | 3.27
8 | YTEGISQRMRVPEKLVVAPPNADL [K16V] | 2.9
9 | YTEGISQRMRVPEKLAVAPPNADL [K16A] | 2.68
10 | YTEGISQRMRVPEKLCVAPPNADL [K16C] | 2.81
11 | YTEGISQRMRVPEKLFVAPPNADL [K16F] | 2.8
12 | YTEGISQRMRVPEKLNVAPPNADL [K16N] | 3.33
13 | YTEGISQRMRVPEKLSVAPPNADL [K16S] | 3.62
14 | YTEGISQRMRVPEKLRVAPPNADL [K16R] | 2.34
15 | YTEGISQRMRVPEKLLVAPPNADL [K16L] | 2.62
16 | YTEGISQRMRVPEKLYVAPPNADL [K16Y] | 2.81
17 | YTEGISQRMRVPEKLPVAPPNADL [K16P] | 2.83
18 | YTEGISQRMRVPEKLEVAPPNADL [K16E] | 2.93
19 | YTEGISQRMHVPEKLKVAPPNADL [R10H] | 2.52
20 | YTEGISQRMYVPEKLKVAPPNADL [R10Y] | 2.08
21 | YTEGISQRMLVPEKLKVAPPNADL [R10L] | 3.06
22 | YTEGISQRMAVPEKLKVAPPNADL [R10A] | 2.17
23 | YTEGISQRMEVPEKLKVAPPNADL [R10E] | 2.83
24 | YTEGISQRMQVPEKLKVAPPNADL [R10Q] | 3.11

Row | Variant | protein stability index
25 | YTEGISQRMGVPEKLKVAPPNADL [R10G] | 2.83
26 | YTEGISQRMPVPEKLKVAPPNADL [R10P] | 3.44
27 | YTEGISQRMCVPEKLKVAPPNADL [R10C] | 2.74
28 | YTEGISQRMNVPEKLKVAPPNADL [R10N] | 2.59
29 | YTEGISQRMSVPEKLKVAPPNADL [R10S] | 2.72
30 | YTEGISQRMWVPEKLKVAPPNADL [R10W] | 3.33
31 | YTEGISQRMMVPEKLKVAPPNADL [R10M] | 2.48
32 | YTEGISQRMVVPEKLKVAPPNADL [R10V] | 2.49
33 | YTEGISQRMKVPEKLKVAPPNADL [R10K] | 3.16
34 | YTEGISQRMDVPEKLKVAPPNADL [R10D] | 2.71
35 | YTEGISQRMIVPEKLKVAPPNADL [R10I] | 2.97
36 | YTEGISQRMFVPEKLKVAPPNADL [R10F] | 1.44
37 | YTEGISQRMTVPEKLKVAPPNADL [R10T] | 2.6
38 | YTEGISQRMRKPEKLKVAPPNADL [V11K] | 2.76
39 | YTEGISQRMRMPEKLKVAPPNADL [V11M] | 3.11
40 | YTEGISQRMRFPEKLKVAPPNADL [V11F] | 2.7
41 | YTEGISQRMRQPEKLKVAPPNADL [V11Q] | 2.62
42 | YTEGISQRMRPPEKLKVAPPNADL [V11P] | 2.78
43 | YTEGISQRMRTPEKLKVAPPNADL [V11T] | 3.24
44 | YTEGISQRMRWPEKLKVAPPNADL [V11W] | 2.18
45 | YTEGISQRMRIPEKLKVAPPNADL [V11I] | 2.96
46 | YTEGISQRMRRPEKLKVAPPNADL [V11R] | 2.48
47 | YTEGISQRMRAPEKLKVAPPNADL [V11A] | 2.89
48 | YTEGISQRMRYPEKLKVAPPNADL [V11Y] | 2.6

Row | Variant | protein stability index
49 | YTEGISQRMRNPEKLKVAPPNADL [V11N] | 2.91
50 | YTEGISQRMRSPEKLKVAPPNADL [V11S] | 3.29
51 | YTEGISQRMRHPEKLKVAPPNADL [V11H] | 2.96
52 | YTEGISQRMREPEKLKVAPPNADL [V11E] | 2.84
53 | YTEGISQRMRGPEKLKVAPPNADL [V11G] | 2.9
54 | YTEGISQRMRLPEKLKVAPPNADL [V11L] | 2.59
55 | YTEGISQRMRCPEKLKVAPPNADL [V11C] | 2.8
56 | YTEGISQRMRDPEKLKVAPPNADL [V11D] | 2.75
57 | YTEGISQRMRVYEKLKVAPPNADL [P12Y] | 2.58
58 | YTEGISQRMRVMEKLKVAPPNADL [P12M] | 2.59
59 | YTEGISQRMRVQEKLKVAPPNADL [P12Q] | 2.78
60 | YTEGISQRMRVSEKLKVAPPNADL [P12S] | 2.53
61 | YTEGISQRMRVNEKLKVAPPNADL [P12N] | 2.96
62 | YTEGISQRMRVEEKLKVAPPNADL [P12E] | 2.69
63 | YTEGISQRMRVLEKLKVAPPNADL [P12L] | 2.42
64 | YTEGISQRMRVGEKLKVAPPNADL [P12G] | 2.46
65 | YTEGISQRMRVIEKLKVAPPNADL [P12I] | 2.21
66 | YTEGISQRMRVFEKLKVAPPNADL [P12F] | 1.88
67 | YTEGISQRMRVKEKLKVAPPNADL [P12K] | 2.57
68 | YTEGISQRMRVCEKLKVAPPNADL [P12C] | 2.14
69 | YTEGISQRMRVREKLKVAPPNADL [P12R] | 2.82
70 | YTEGISQRMRVHEKLKVAPPNADL [P12H] | 2.77
71 | YTEGISQRMRVTEKLKVAPPNADL [P12T] | 2.09
72 | YTEGISQRMRVAEKLKVAPPNADL [P12A] | 3.06

Row | Variant | protein stability index
73 | YTEGISQRMRVVEKLKVAPPNADL [P12V] | 2.64
74 | YTEGISQRMRVDEKLKVAPPNADL [P12D] | 2.73
75 | YTEGISQRMRVWEKLKVAPPNADL [P12W] | 2.46
76 | YTEGISQRMRVPWKLKVAPPNADL [E13W] | 2.16
77 | YTEGISQRMRVPIKLKVAPPNADL [E13I] | 2.49
78 | YTEGISQRMRVPPKLKVAPPNADL [E13P] | 2.65
79 | YTEGISQRMRVPAKLKVAPPNADL [E13A] | 2.95
80 | YTEGISQRMRVPVKLKVAPPNADL [E13V] | 2.79
81 | YTEGISQRMRVPRKLKVAPPNADL [E13R] | 2.9
82 | YTEGISQRMRVPFKLKVAPPNADL [E13F] | 2.35
83 | YTEGISQRMRVPSKLKVAPPNADL [E13S] | 3.18
84 | YTEGISQRMRVPCKLKVAPPNADL [E13C] | 2.53
85 | YTEGISQRMRVPLKLKVAPPNADL [E13L] | 2.33
86 | YTEGISQRMRVPGKLKVAPPNADL [E13G] | 2.18
87 | YTEGISQRMRVPQKLKVAPPNADL [E13Q] | 2.65
88 | YTEGISQRMRVPHKLKVAPPNADL [E13H] | 2.98
89 | YTEGISQRMRVPKKLKVAPPNADL [E13K] | 2.2
90 | YTEGISQRMRVPTKLKVAPPNADL [E13T] | 2.57
91 | YTEGISQRMRVPMKLKVAPPNADL [E13M] | 2.64
92 | YTEGISQRMRVPYKLKVAPPNADL [E13Y] | 2.54
93 | YTEGISQRMRVPNKLKVAPPNADL [E13N] | 2.53
94 | YTEGISQRMRVPDKLKVAPPNADL [E13D] | 2.86
